Results: patent US20070258982A1 (Pfizer, published 2007)
Read-outs that look alike come from different tables or passages of the source.

T1: IL-26 (human, UniProt Q9NPH9)
T1 construct: also called human IL-26
T1 sequence (cytokine, looked up): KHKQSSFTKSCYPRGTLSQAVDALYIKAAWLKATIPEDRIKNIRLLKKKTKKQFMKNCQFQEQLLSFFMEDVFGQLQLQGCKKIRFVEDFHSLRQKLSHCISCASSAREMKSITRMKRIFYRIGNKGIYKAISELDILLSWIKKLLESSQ

T2: human IL-22 (human, UniProt Q9GZX6 34-179)
T2 sequence: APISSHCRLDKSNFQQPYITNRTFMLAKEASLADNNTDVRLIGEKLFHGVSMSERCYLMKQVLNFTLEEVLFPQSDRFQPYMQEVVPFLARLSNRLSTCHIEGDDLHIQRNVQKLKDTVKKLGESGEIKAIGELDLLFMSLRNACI


Columns and labels:
BSA [1] = target: T3, BSA (bovine, UniProt P02769); assay: ELISA: plate coated with antigen, IgG added at 1 µg/ml, HRP goat anti-human IgG, A450
T3 construct: also called bovine serum albumin
T3 sequence (P02769 25-607 limits assumed): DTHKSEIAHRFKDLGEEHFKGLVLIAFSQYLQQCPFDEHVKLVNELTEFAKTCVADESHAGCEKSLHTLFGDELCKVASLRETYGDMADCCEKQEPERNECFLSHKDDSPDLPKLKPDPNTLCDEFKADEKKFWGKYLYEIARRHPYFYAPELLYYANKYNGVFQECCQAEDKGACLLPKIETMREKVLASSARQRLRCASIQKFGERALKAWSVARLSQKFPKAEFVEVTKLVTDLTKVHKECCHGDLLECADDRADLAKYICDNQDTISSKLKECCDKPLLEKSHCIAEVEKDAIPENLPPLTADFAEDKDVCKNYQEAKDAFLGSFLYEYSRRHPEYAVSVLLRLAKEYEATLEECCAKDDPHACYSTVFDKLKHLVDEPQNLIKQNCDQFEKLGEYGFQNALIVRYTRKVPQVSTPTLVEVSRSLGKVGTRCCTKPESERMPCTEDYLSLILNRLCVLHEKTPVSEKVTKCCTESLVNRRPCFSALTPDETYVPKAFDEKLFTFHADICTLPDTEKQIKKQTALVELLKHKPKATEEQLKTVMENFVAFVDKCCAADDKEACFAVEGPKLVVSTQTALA

IL-26 = target: T1, IL-26; assay: ELISA: plate coated with 1 µg/ml antigen, IgG added at 1 µg/ml, HRP goat anti-human IgG, A450
Procedure: Cross species reactivity of germlined and non-germlined optimized antibodies were determined as follows: ELISA plates (Costar, Cat. #3590) were coated overnight with 1 μg/ml of rat, mouse, or human IL-22 or human IL-26 in PBS buffer. Plates were washed with PBST buffer (0.05% Tween20 in PBS) 3 times, then blocked with 1% BSA (Sigma A8918)/PBST for 1 hr at RT. Antibodies were added at 1 μg/ml, incubated 1 hr at 25° C. […] The plates were incubated for 1 hour at 25° C., then washed with PBST, and developed with TMB (KPL, Cat. #50-76-04). Reaction was stopped with 0.18 M H₂SO₄ Plates were read at OD 450 nm.

human IL-22 = target: T2, human IL-22; assay: cell-based or functional assay
BSA [2] = target: T3, BSA; assay: ELISA: plate coated with antigen, IgG added at 1 µg/ml, HRP goat anti-human IgG, A450; remark: listed apart in the source

Binder	binding result (BSA [1])	binding result (IL-26)	IC50 of IgG (pM) in BaF3-IL-22 proliferation assay (human IL-22) [pM]	binding result (BSA [2])	IC50 of scFv (pM) in BaF3-IL-22 proliferation assay (human IL-22) [pM]
166B06 IgG (germlined) (antibody, V domains shown) VH: QVQLVQSGAEVKKPGASVKVSCKASGYTFSDYYIHWVRQAPGQGLEWMGWVNPDTGGTRYAQKFQGRVTMTRDMSISTAYMELSRLRSDDTAVYYCARDLTGFDPFDIWGQGTLVTVSS VL: SSVLTQPPSVSVAPGKTARITCGGNNFRNKRVHWYQQKPGQAPVLVIYYDSDRPSGIPERFSGSRSGNTATLTISRVEAGDEADYYCQVWDLFNDNGVFGGGTKLTVLG	no binding (tested: 1 µg/ml)	no binding (tested: 1 µg/ml)	–	–	–
062G05 IgG (non-germlined) (antibody, V domains shown, IgG) VH: QVQLVESGAEVKKPGASVKVSCKASGYTFTSYGISWVRQAPGQGLEWMGWISAYTGNTNYAQKFQGRVTMTTDTSTSTAYMELRSLRSDDTAVYYCARDRGYYDAFDIWGQGTLVTVSS VL: DIQMTQSPSTLSASIGDRVTITCRASEGIYHWLAWYQQKPGKAPKLLIYKASSLASGAPSRFSGSGFGTDFTLTISSLQPDDFATYYCQQMGEWKAAFGGGTKLEIKR	–	–	112	no binding (tested: 1 µg/ml)	–
355B06 IgG (germlined) (antibody, V domains shown) VH: QVQLVQSGAEVKKPGASVKVSCKASGYTFTDYYMHWVRQAPGQGLEWVGWINPYTGSAFYAQKFRGRVTMTRDTSISTAYMELSRLRSDDTAVYYCAREPEKFGESSGQLWGRGTLVTVSS VL: QAVLTQPPSVSGAPGQRVTISCTGSSSNIGAGYGVHWYQQLPGTAPKLLIYGDSNRPSGVPDRFSGSKSGTSASLAITGLQAEDEADYYCQSYDSGLSGYVFGGGTQLTVLG	no binding (tested: 1 µg/ml)	no binding (tested: 1 µg/ml)	92	–	–
354A08 IgG (germlined) (antibody, V domains shown, isotype of this preparation not restated) VH: QVQLVQSGAEVKKPGASVKVSCKASGYTFTDYYMHWVRQAPGQGLEWVGWINPYTGGAFYAQKFRGRVTMTRDTSISTAYMELSRLRSDDTAVYYCAREPERFGDSTGQVWGRGTLVTVSS VL: QAVLTQPPSVSGAPGQRVTISCTGSSSNIGAGYGVHWYQQLPGTAPKLLIYGNSNRPSGVPDRFSGSKSGTSASLAITGLQAEDEADYYCYHWDKEQSGYVFGGGTQLTVLG	no binding (tested: 1 µg/ml)	no binding (tested: 1 µg/ml)	79	–	–
355E04 IgG (germlined) (antibody, V domains shown) VH: QVQLVQSGAEVKKPGASVKVSCKASGYTFTHYYMHWVRQAPGQGLEWVGWINPYTGGAFYAQKFQGRVTMTRDTSISTAYMELSRLRSDDTAVYYCAREPEKFDSPNAEIWGRGTLVTVSS VL: QAVLTQPPSVSGAPGQRVTISCTGSSSNIGAGYGVHWYQQLPGTAPKLLIYGNSNRPSGVPDRFSGSKSGTSASLAITGLQAEDEADYYCQSYDSSLSGYVFGGGTQLTVLG	no binding (tested: 1 µg/ml)	no binding (tested: 1 µg/ml)	100	–	–
356A11 IgG (germlined; Tables 6 and 9) (antibody, V domains shown) VH: QVQLVQSGAEVKKPGASVKVSCKASGYTFTNYYMHWVRQAPGQGLEWVGWINPYTGSAFYAQKFRGRVTMTRDTSISTAYMELSRLRSDDTAVYYCAREPEKFDSDDSDVWGRGTLVTVSS VL: QAVLTQPPSVSGAPGQRVTISCTGSSSNIGAGYGVHWYQQLPGTAPKLLIYGDSNRPSGVPDRFSGSKSGTSASLAITGLQAEDEADYYCQSYDNSLSGYVFGGGTQLTVLG	no binding (tested: 1 µg/ml)	no binding (tested: 1 µg/ml)	53	–	–
087B03 IgG (germlined) (antibody, V domains shown) VH: EVQLVESGGGVVRPGGSLRLSCAASGFTFDDYGMNWVRQAPGKGLEWVSGVNWNGGTRDYAASVKGRFTISRDNAKNSLYLQMNSLRAEDTALYHCARGWYSGAAWNMGYWGRGTLVTVSS VL: QAALTQPASVSGSPGQSITISCTGASGDVGAYNFVSWYQQHPGKAPKLIIYDVNKRPSGVSNRFSGSKSGNTASLTISGLQAEDEADYYCSSYTSTFSVVFGGGTKLTVLG	no binding (tested: 1 µg/ml)	no binding (tested: 1 µg/ml)	–	–	–
368D04 IgG (non-germlined) (antibody, V domains shown) VH: EVQLVESGGGVVRPGGSLRLSCAASGFTFDDYGMNWVRQAPGKGLEWVSGVNWNGGTRDYAASVKGRFTISRDNAKNSLYLQMNSLRAEDTALYYCARGWYSGAAWNMGYWGRGTLVTVSS VL: QAVLTQPSSVSGSPGQSITISCTGASGDVGAYNFVSWYQQHPGKTPKLIIYDVNKRPSGVSNRFSGSKSGNTASLTISGLQAEDESDYYCASLVSDFSVVFGGGTKVTVLG	–	no binding (tested: 1 µg/ml)	127	no binding (tested: 1 µg/ml)	–

Further lines, results first:

binding result (BSA [1])	binding result (IL-26)	IC50 of IgG (pM) in BaF3-IL-22 proliferation assay (human IL-22) [pM]	binding result (BSA [2])	IC50 of scFv (pM) in BaF3-IL-22 proliferation assay (human IL-22) [pM]	Binder
no binding (tested: 1 µg/ml)	no binding (tested: 1 µg/ml)	–	–	–	166G05 IgG (germlined) (antibody, V domains shown) VH: QVQLVQSGAEVKKPGASVKVSCKASGYTFSDYYIHWVRQAPGQGLEWMGWVNPDTGGTRYAQKFQGRVTMTRDMSISTAYMELSRLRSDDTAVYYCARDLTGFDPFDIWGQGTLVTVSS VL: SSVLTQPPSVSVAPGKTARITCGGNNFRNKRVHWYQQKPGQAPVLVIYYDSDRPSGIPERFSGSRSGNTATLTISRVEAGDEADYYCQVWDFLTDSGSFGGGTKLTVLG
–	–	–	–	160	367D04 scFv (non-germlined) (scFv) scFv: EVQLVESGGGVVRPGGSLRLSCAASGFTFDDYGMNWVRQAPGKGLEWVSGVNWNGGTRDYAASVKGRFTISRDNAKNSLYLQMNSLRAEDTALYYCARGWYSGSPWSLGHWGRGTLVTVSSGGGGSGGGGSGGSGGGSGGSGGGSSGGGSGGGGSAQAVLTQPSSVSGSPGQSVTISCTGASGDVGAYNFVSWYQQHPGKTPKLIIYDVNKRPSGVSNRFSGSKSGNTASLTISRLQAEDESDYYCSSYTSRYTTEFGGGTKVTVLGAAAH
–	no binding (tested: 1 µg/ml)	100	no binding (tested: 1 µg/ml)	–	375G06 IgG (non-germlined) (antibody, V domains shown, IgG) VH: EVQLVQSGAEVKKPGASVKVSCQASGYTFSDYYIHWVRQTPGQGFEWMGWVNPDTGGTRYAQKFQGWVTMTRDMSNTTAYMELPRLRDDDTAVYYCARDLTGYDYYDRWGQGTLVTVSS VL: QSVLTQPPSMSVAPGKTATITCGGNNFRNKRVHWYQQRPGQAPVLVIYYDSDRPSGIPERFSGSRSGNTATLTISRVEAGDEADFYCQVWDFLADEAMFGGGTKLTVL
–	no binding (tested: 1 µg/ml)	119	no binding (tested: 1 µg/ml)	–	376B10 IgG (non-germlined) (antibody, V domains shown, IgG) VH: EVQLVQSGAEVKKPGASVKVSCQASGYTFSDYYIHWVRQTPGQGFEWMGWVNPDTGGTRYAQKFQGWVTMTRDMSNTTAYMELPGLRDDDTAVYYCARDLTGYDQYTAWGQGTLVTVSS VL: QSVLTQPPSVSVAPGKTATITCGGNNFRNKRVHWYQQRPGQAPVLVIYYDSDRPSGIPERFSGSRSGNTATLTISRVEAGDEADFYCSTFDPFTDRPLFGGGTKLTVLG
–	no binding (tested: 1 µg/ml)	126	no binding (tested: 1 µg/ml)	–	367D04 IgG (non-germlined) (antibody, V domains shown, IgG) VH: EVQLVESGGGVVRPGGSLRLSCAASGFTFDDYGMNWVRQAPGKGLEWVSGVNWNGGTRDYAASVKGRFTISRDNAKNSLYLQMNSLRAEDTALYYCARGWYSGSPWSLGHWGRGTLVTVSS VL: QAVLTQPSSVSGSPGQSVTISCTGASGDVGAYNFVSWYQQHPGKTPKLIIYDVNKRPSGVSNRFSGSKSGNTASLTISRLQAEDESDYYCSSYTSRYTTEFGGGTKVTVLG
